PMC7949053, “Natural variants modify Klebsiella pneumoniae carbapenemase (KPC) acyl–enzyme conformational dynamics to extend antibiotic resistance” (The Journal of Biological Chemistry, 2020)

Key:
[1] = system: CC(C)(O/N=C(\C(=O)N[C@@H]1C(=O)N2C(C(=O)[O-])=C(C[n+]3ccccc3)CS[C@H]12)c1csc(N)n1)C(=O)O; experiment: purified protein; settings: 10 mM HEPES pH 7.5, 150 mM NaCl, 25 °C, standard error in parentheses
[2] = system: CO/N=C(\C(=O)N[C@@H]1C(=O)N2C(C(=O)O)=C(COC(C)=O)CS[C@H]12)c1csc(N)n1; experiment: purified protein; settings: 10 mM HEPES pH 7.5, 150 mM NaCl, 25 °C, standard error in parentheses, n = 3

KPC-2 (Klebsiella pneumoniae)
Km [1]: 530 (70) μM
kcat [1]: 1.9 s⁻¹
kcat/Km [1]: 3500 M⁻¹ s⁻¹
Km [2]: 200 (29) μM
kcat [2]: 76 s⁻¹
kcat/Km [2]: 380000 M⁻¹ s⁻¹
